{"source": "paper PMC10616196", "about": "“A marine cryptochrome with an inverse photo-oligomerization mechanism” (Nature Communications, 2023)", "molecules": {"B1": {"name": "PdLCry^Y352A (natural protein)", "chain": "MKEKMSAWEVGNGIMEEKTDDWDNKEDNGKEHVSLHWFRHGLRLHDNPALLKSLEGAKEFYALFIWDGEVAGTKLVSYPRMKFLLECLKDLDDSLKKHGGRLYVVKGPSDVVIKQLIEEWGVTRVTCEIDPEPIWQPRDKAVKDLCATKGVKWFDYNSHLLWDPKAVCDANGGRPPHTYKLFCQVTDLLGKPETPHPDPDFSHVQMPVSDDFDDKFGLPTLKELGCEPECEEQEKPFNKWQGGETGALELLETRLMIERTAYKAGYIMPNQYIPDLVGPPRSMSPHLRFGALSIRKFYWDLHNNYAEVCGGEWLGALTAQLVWREYFYCMSYGNPSFDKMEGNPICLQIPWAKDEEALEKWKQGQTGFPWIDACMRQLRYEGWMHHVGRHAVACFLTRGDLWISWVDGLEAFYKYMLDGDWSVCAGNWMWVSSSAFENCLQCPQCFSPVLYGMRMDPTGEFTRRYVPQLKNMPLKYLFQPWKAPKEVQEKAGCVIGEDYPSPMVDHKEASSKCRRMMEDVKSIIKDPEVWHCTPSDTNEVRKFCWLPEHMTADQPCLGDLPCIKY", "modifications": "FAD bound; dimer in dark / FAD bound; dimer in dark"}, "B2": {"name": "PdLCry^Y352D (natural protein)", "chain": "B1 chain with A352D", "modifications": "FAD bound; dimer in dark / FAD bound; dimer in dark"}}, "key": {"PdLCry (L-CRY) [1]": {"target": "T1, PdLCry (L-CRY) (Platynereis dumerilii, UniProt Z9ZPX6J9J5, Y352A)", "T1 construct": "full length, N-terminal His6 tag, expressed in Sf9 insect cells (pCoofy27, baculovirus); 565 residues, model 31-556; homodimer in dark, monomer under blue light", "T1 sequence (Z9ZPX6J9J5 1-565 Y352A)": "B1 chain", "test": "UV/Vis spectroscopy of FAD photoreduction", "assay_type": "binding", "details": "naturalistic sunlight, on ice; pH 8.0; co-purified FAD"}, "PdLCry (L-CRY) [2]": {"target": "T2, PdLCry (L-CRY) (Platynereis dumerilii, UniProt Z9ZPX6J9J5)", "T2 construct": "full length, N-terminal His6 tag, expressed in Sf9 insect cells (pCoofy27, baculovirus); 565 residues, model 31-556; homodimer in dark, monomer under blue light", "T2 sequence (Z9ZPX6J9J5 1-565)": "B1 chain with A352Y", "test": "cryo-EM structure of the complex, […] A", "assay_type": "binding", "details": "dark state, far-red light; pH 8.0; homodimer; near stoichiometric FAD occupancy; non-covalent"}, "PdLCry (L-CRY) [3]": {"target": "T3, PdLCry (L-CRY) (Platynereis dumerilii, UniProt Z9ZPX6J9J5, Y352D)", "T3 construct": "full length, N-terminal His6 tag, expressed in Sf9 insect cells (pCoofy27, baculovirus); 565 residues, model 31-556; homodimer in dark, monomer under blue light", "T3 sequence (Z9ZPX6J9J5 1-565 Y352D)": "B1 chain with A352D", "test": "UV/Vis spectroscopy of FAD photoreduction", "assay_type": "binding", "details": "naturalistic sunlight, on ice; pH 8.0; co-purified FAD"}, "[4]": {"target": "Platynereis dumerilii L-CRY (PdLCry), wildtype (Platynereis dumerilii)", "test": "cryo-EM structure; blue light state: grids illuminated for 30 s with a 455 nm LED, vitrified within less than 5 s; 0.7 mg mL^-1 in 25 mM Bis-tris propane pH 8.0, 150 mM NaCl, 1 mM TCEP; 2D classification, C1 map filtered to 8 Å"}, "[5]": {"target": "Platynereis dumerilii L-CRY (PdLCry), wildtype (Platynereis dumerilii)", "test": "cryo-EM structure; dark state: vitrified under far-red light; 0.7 mg mL^-1 in 25 mM Bis-tris propane pH 8.0, 150 mM NaCl, 1 mM TCEP, 0.01% fluorinated octyl maltoside; 2D classification and C2 refinement"}, "[6]": {"target": "Platynereis dumerilii L-CRY (PdLCry), wildtype (Platynereis dumerilii)", "test": "SEC; analytical SEC with inline UV/Vis, Superdex 200 Increase 5/150 GL, far-red light (dark) conditions; 7 µL at 5 mg mL^-1; 25 mM Bis-tris propane pH 8.0, 150 mM NaCl, 1 mM TCEP"}, "PdLCry^Y352A": {"target": "T4, PdLCry^Y352A (Platynereis dumerilii)", "T4 chain": "B1 chain", "test": "SEC; final SEC step of the purification in dark or dim red light (Superdex S200 10/300 GL or HiLoad S200 16/60; 25 mM Bis-tris propane pH 8.0, 150 mM NaCl, 5% glycerol, 1 mM TCEP)", "details": "both partners purified"}, "PdLCry^Y352D": {"target": "T5, PdLCry^Y352D (Platynereis dumerilii)", "T5 chain": "B1 chain with A352D", "test": "SEC; final SEC step of the purification in dark or dim red light (Superdex S200 10/300 GL or HiLoad S200 16/60; 25 mM Bis-tris propane pH 8.0, 150 mM NaCl, 5% glycerol, 1 mM TCEP)", "details": "both partners purified"}}, "note": "Substitutions are numbered along the chain they refer to.", "data": [{"molecule": "Cc1cc2nc3c(=O)[nH]c(=O)nc-3n(C[C@H](O)[C@H](O)[C@H](O)COP(=O)(O)OP(=O)(O)OC[C@H]3O[C@@H](n4cnc5c(N)ncnc54)[C@H](O)[C@@H]3O)c2cc1C", "note": "[flavin adenine dinucleotide]", "values": [{"measurement": "UV/Vis spectroscopy of FAD photoreduction", "setting": "PdLCry (L-CRY) [1]", "result": "both mutations lead to a less efficient FAD photoreduction under illumination conditions mimicking naturalistic sunlight"}, {"measurement": "cryo-EM structure of the complex, 2.6 A", "setting": "PdLCry (L-CRY) [2]", "result": "We observe a near stochiometric occupancy of the ligand FAD"}, {"measurement": "UV/Vis spectroscopy of FAD photoreduction", "setting": "PdLCry (L-CRY) [3]", "result": "both mutations lead to a less efficient FAD photoreduction under illumination conditions mimicking naturalistic sunlight"}]}, {"molecule": "Platynereis dumerilii L-CRY (PdLCry), wildtype (natural protein)", "values": [{"measurement": "percent of the protein monomeric", "setting": "[4]", "result": "> 90", "unit": "%"}, {"measurement": "percent of the protein present as a dimer", "setting": "[5]", "result": 80, "unit": "%"}, {"measurement": "stoichiometry N", "setting": "[5]", "result": 2}, {"measurement": "stoichiometry N", "setting": "[6]", "result": 2}]}, {"molecule": "B1", "values": [{"measurement": "stoichiometry N", "setting": "PdLCry^Y352A", "result": 2}]}, {"molecule": "B2", "values": [{"measurement": "stoichiometry N", "setting": "PdLCry^Y352D", "result": 2}]}]}
